Among the data in article PMC10151503, “Specific DNA binding of archaeal histones HMfA and HMfB” are Kd values, retold here.

The target of series [1] is T1, HMfA (Methanothermus fervidus, UniProt P48781 1-69). Put plainly: MST; Hill h 0.992 ± 0.21; MST: 50 mM Tris-HCl pH 8, 75 mM KCl, 20 nM DNA (40 nM diluted 1:1), 5 min at room temperature (0.2% Tween20 where noted); TPM: 50 mM Tris-HCl pH 7, 75 mM KCl. To be noted: protein: recombinant; chain copies: 2; label: 5' Cy5 top strand; blunt.
Series [2] addresses T2, HMfB (Methanothermus fervidus, UniProt P19267 1-69). Description: MST; first (specific) step; Hill h 7.45 ± 3.5; MST: 50 mM Tris-HCl pH 8, 75 mM KCl, 20 nM DNA (40 nM diluted 1:1), 5 min at room temperature (0.2% Tween20 where noted); TPM: 50 mM Tris-HCl pH 7, 75 mM KCl. Particulars: protein: recombinant; chain copies: 2; label: 5' Cy5 top strand; blunt.
For series [3], the target named is T2, HMfB. Put plainly: MST; second (nonspecific) step; Hill h 0.564 ± 0.30; error exceeds value; MST: 50 mM Tris-HCl pH 8, 75 mM KCl, 20 nM DNA (40 nM diluted 1:1), 5 min at room temperature (0.2% Tween20 where noted); TPM: 50 mM Tris-HCl pH 7, 75 mM KCl. To be noted: protein: recombinant; chain copies: 2; label: 5' Cy5 top strand; blunt.
Series [4] addresses T1, HMfA. Put plainly: MST; Hill h 1.08 ± 0.19; MST: 50 mM Tris-HCl pH 8, 75 mM KCl, 20 nM DNA (40 nM diluted 1:1), 5 min at room temperature (0.2% Tween20 where noted); TPM: 50 mM Tris-HCl pH 7, 75 mM KCl. To be noted: protein: recombinant; chain copies: 2; label: 5' Cy5 top strand; blunt.
For series [5], the target named is T2, HMfB. Put plainly: MST; Hill h 3.30 ± 0.97; MST: 50 mM Tris-HCl pH 8, 75 mM KCl, 20 nM DNA (40 nM diluted 1:1), 5 min at room temperature (0.2% Tween20 where noted); TPM: 50 mM Tris-HCl pH 7, 75 mM KCl. Particulars: protein: recombinant; chain copies: 2; label: 5' Cy5 top strand; blunt.
Series [6] concerns the target T3, HMfB D14A K30A E34A (Methanothermus fervidus, UniProt P19267 1-69, D14A;K30A;E34A). Description: MST; 0.2% Tween20; Hill h 4.09 ± 0.62; MST: 50 mM Tris-HCl pH 8, 75 mM KCl, 20 nM DNA (40 nM diluted 1:1), 5 min at room temperature (0.2% Tween20 where noted); TPM: 50 mM Tris-HCl pH 7, 75 mM KCl. To be noted: protein: recombinant; chain copies: 4; label: 5' Cy5 top strand; blunt.

Series [7] deals with T1, HMfA. Description: MST; Hill h 1.08 ± 0.21; MST: 50 mM Tris-HCl pH 8, 75 mM KCl, 20 nM DNA (40 nM diluted 1:1), 5 min at room temperature (0.2% Tween20 where noted); TPM: 50 mM Tris-HCl pH 7, 75 mM KCl. Particulars: protein: recombinant; chain copies: 2; label: 5' Cy5 top strand; blunt.
For series [8], the target named is T3, HMfB D14A K30A E34A. Description: MST; 0.2% Tween20; Hill h 3.51 ± 0.77; MST: 50 mM Tris-HCl pH 8, 75 mM KCl, 20 nM DNA (40 nM diluted 1:1), 5 min at room temperature (0.2% Tween20 where noted); TPM: 50 mM Tris-HCl pH 7, 75 mM KCl. To be noted: protein: recombinant; chain copies: 4; label: 5' Cy5 top strand; blunt.
The target of series [9] is T2, HMfB. Description: MST; first (specific) step; Hill h 1.24 ± 0.91; MST: 50 mM Tris-HCl pH 8, 75 mM KCl, 20 nM DNA (40 nM diluted 1:1), 5 min at room temperature (0.2% Tween20 where noted); TPM: 50 mM Tris-HCl pH 7, 75 mM KCl. To be noted: protein: recombinant; chain copies: 2; label: 5' Cy5 top strand; blunt.
Series [10] has as its target T2, HMfB. Description: MST; second (nonspecific) step; Hill h 1.44 ± 0.47; MST: 50 mM Tris-HCl pH 8, 75 mM KCl, 20 nM DNA (40 nM diluted 1:1), 5 min at room temperature (0.2% Tween20 where noted); TPM: 50 mM Tris-HCl pH 7, 75 mM KCl. Particulars: protein: recombinant; chain copies: 2; label: 5' Cy5 top strand; blunt.
Series [11] has as its target T1, HMfA. Put plainly: MST; Hill h 1.23 ± 0.16; MST: 50 mM Tris-HCl pH 8, 75 mM KCl, 20 nM DNA (40 nM diluted 1:1), 5 min at room temperature (0.2% Tween20 where noted); TPM: 50 mM Tris-HCl pH 7, 75 mM KCl. Particulars: protein: recombinant; chain copies: 2; label: 5' Cy5 top strand; blunt.
The target in series [12] is T2, HMfB. Description: MST; second (nonspecific) step; Hill h 1.30 ± 0.38; MST: 50 mM Tris-HCl pH 8, 75 mM KCl, 20 nM DNA (40 nM diluted 1:1), 5 min at room temperature (0.2% Tween20 where noted); TPM: 50 mM Tris-HCl pH 7, 75 mM KCl. Particulars: protein: recombinant; chain copies: 2; label: 5' Cy5 top strand; blunt.

T2 sequence (P19267 whole entry): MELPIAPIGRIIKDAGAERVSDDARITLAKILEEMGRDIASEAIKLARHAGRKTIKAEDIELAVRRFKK
T1 sequence (P48781 whole entry): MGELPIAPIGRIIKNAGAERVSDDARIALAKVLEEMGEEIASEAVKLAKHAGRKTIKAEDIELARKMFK
T3 sequence (P19267 whole entry D14A/K30A/E34A): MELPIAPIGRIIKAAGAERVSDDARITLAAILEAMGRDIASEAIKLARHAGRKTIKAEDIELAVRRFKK

B1: Clone20R 78 bp (dsDNA)
DNA 1: CGGCGCAAATTCGTGACCAGTTGCATCAGCTGCGTGCGTAGAACGCTTTAATTGATAATCAAAGGCCGCAGAGAGCTC
DNA 2: GAGCTCTCTGCGGCCTTTGATTATCAATTAAAGCGTTCTACGCACGCAGCTGATGCAACTGGTCACGAATTTGCGCCG
The Kd is the free concentration of one partner at which half of the binding sites on the other are occupied at equilibrium, for simple one-to-one binding. Take B1: the Kd in [1] is 7.34 ± 2.8 µM; in series [2], 0.66 ± 0.047 µM; in [3], 12.3 ± 27 µM.

B2: Nonspecific 78 bp (dsDNA)
DNA 1: CGGCGCAAATTCGTGACCAGTTGCATCAGCTGCGTGAGCTGTTTATCGCAGCATCGTAACAGGATAGTGAAGAAGACT
DNA 2: AGTCTTCTTCACTATCCTGTTACGATGCTGCGATAAACAGCTCACGCAGCTGATGCAACTGGTCACGAATTTGCGCCG
Regarding B2, the equilibrium dissociation constant (Kd) in series [4] stood at 16.5 ± 6.7 µM; in series [5] it was 0.915 ± 0.089 µM; in series [6], 22 ± 0.71 µM.

B3: Clone20 78 bp (dsDNA)
DNA 1: GGATCCCTGTCGGCACAGTTGAGCGATCAAAAACGCCGTAGAACGCTTTAATTGATAATCAAAGGCCGCAGAGAGCTC
DNA 2: GAGCTCTCTGCGGCCTTTGATTATCAATTAAAGCGTTCTACGGCGTTTTTGATCGCTCAACTGTGCCGACAGGGATCC
On to B3, for which the Kd in series [7] stood at 3.75 ± 0.1 µM; in series [8], 19.6 ± 1.19 µM; in series [9], 0.243 ± 0.16 µM; in series [10], 2.99 ± 0.81 µM.

B4: Clone20L 78 bp (dsDNA)
DNA 1: GGATCCCTGTCGGCACAGTTGAGCGATCAAAAACGCCGTAGATTATCGCAGCATCGTAACAGGATAGTGAAGAAGACT
DNA 2: AGTCTTCTTCACTATCCTGTTACGATGCTGCGATAATCTACGGCGTTTTTGATCGCTCAACTGTGCCGACAGGGATCC
Take B4: the results for the dissociation constant Kd in [11] and in [12] were 8.09 ± 1.4 µM and 4.11 ± 1 µM, respectively.
